The record followed here is patent US20060110356A1, “Ophthalmic drug delivery system using polymer micelle” (NANOCARRIER KABUSHIKI KAISHA, priority 2003, published 2006).

The test system of data set [1] is choroidal neovascular (CNV) model. Kind of data set: Intraocular transfer of fluorescent-labelled PIC micelle in rat CNV model (fluorescence microscopy of frozen sections). The format is in vivo, BN rat. The conditions noted are these: intravenous, 400 μL of 5 mg/mL in physiological saline. Here is the method: A diblock copolymer having polyethylene glycol (PEG) as a hydrophilic polymer chain, and polyaspartic acid (P(Asp)) as an anionic polymer chain within one molecule was dispersed in water, and mixed with FITC-labelled polylysine (FITC-P(Lys)) to prepare a core-shell type PIC micelle solution (5 mg/mL) having a core of a polylon complex (PIC) consisting of P(Asp) and FITC-P(Lys), and a shell of PEG.
After generally anesthetizing a BN rat by intramuscular administration of 1 mL/kg of a mixture of a 5% ketamine hydrochloride injection and a 2% xylazine hydrochloride injection (7:1), eye drops of a 0.5% tropicamide-0.5% phenylephrine hydrochloride ophthalmic solution were administered to render mydriasis. Then, photocoagulation was carried out with a semiconductor laser photocoagulator. Photocoagulation was carried out on six scattering positions per one eye in a posterior portion of the ocular fundus while focusing on retinal deep layer (coagulation conditions: spot size 75 μm, output 200 mW, coagulation time 0.05 sec) such that irradiation of large retinal vessels was avoided. […]
Following administration, the eyeball was removed after a predetermined time, and a frozen tissue section was prepared. Thereafter, leakage of the fluorescence to the choroidal neovascular site was qualitatively observed by a fluorescence microscope.

In a further data set the test system is skin. The conditions noted are these: rat, in vivo, iv. Here is the method:
As a comparative control, Photofrin was administered under the same condition.
Four hours after the administration, a xenon lamp was irradiated on the shaved part (wavelength: 377-700 nm, power density: 30 mW/cm^2, irradiation area: 4 cm^2).

With FITC-labelled polylysine [FITC-P(Lys)], the “toxicity (death of animal)” value in data set [1] is “the animal died one hour after the administration due to its toxicity”. With Photofrin, in the data set with skin, the “photosensitive erethism on the skin” value is listed as “photosensitive erethism was found”.
